Where “and” joins values, the source holds several entries; their conditions need not be identical. Identical values can stand only once.
Tests used:
[1] = target: human pro-TGF-β1 (C4S, R249A furin-site mutant, N107Q, N147Q), purified (human); assay: negative-stain electron microscopy
[2] = target: pro-TGF-β1 prodomain expressed in absence of the growth factor (latency-associated peptide, LAP); assay: SPR

soluble integrin αVβ6 headpiece (from UniProt P06756 31-625; P18564 22-491) (complex)
stoichiometry N (αVβ6 headpieces per pro-TGF-β1 dimer) [1]: 2 and 1 | Kd [2]: 7.6 nM

Reference: article PMC5586147
